Measured values: article PMC9401124

Molecular target: EsxT (M. abscessus), co-expressed with EsxU in M. smegmatis (Mycobacterium abscessus ATCC 19977)
Assay: SEC-MALS; purified EsxU/EsxT complex injected at 10 mg/mL on S200 5/150, 0.8 mL/min, 20 mM Tris pH 8.0, 300 mM NaCl, 5% glycerol

“EsxU (M. abscessus), co-expressed with EsxT in M. smegmatis (natural protein)” gave a stoichiometry N of 1.
